Measurements as given in US20160272693A1 (ZEALAND PHARMA A S, published 2016).
*1 amine or outer side, *2 acyl side, *3 side chain or, on linkers, in order; H or OH if unused. Bridges are numbered along the chain shown (N, C = ends). [ ]: non-standard residue; d: D form. The star is where a group is joined. C20 diacid = O=C(O)CCCCCCCCCCCCCCCCCCC(=O)*; γGlu = O=C(O)[C@H](CCC(=O)[*:2])N[*:1]; Hyp = O=C(O)[C@@H]1C[C@@H](O)CN1; NMeI = CC[C@H](C)[C@H](NC)C(=O)O; Sar = CNCC(=O)O

T1: human amylin receptor 3 (hAMYR3), hCTR2 co-expressed with human receptor activity modifying protein 3 (hRAMP3) (human, UniProt P30988 25-474; O60896 24-148)
T1 sequence (looked up) 1: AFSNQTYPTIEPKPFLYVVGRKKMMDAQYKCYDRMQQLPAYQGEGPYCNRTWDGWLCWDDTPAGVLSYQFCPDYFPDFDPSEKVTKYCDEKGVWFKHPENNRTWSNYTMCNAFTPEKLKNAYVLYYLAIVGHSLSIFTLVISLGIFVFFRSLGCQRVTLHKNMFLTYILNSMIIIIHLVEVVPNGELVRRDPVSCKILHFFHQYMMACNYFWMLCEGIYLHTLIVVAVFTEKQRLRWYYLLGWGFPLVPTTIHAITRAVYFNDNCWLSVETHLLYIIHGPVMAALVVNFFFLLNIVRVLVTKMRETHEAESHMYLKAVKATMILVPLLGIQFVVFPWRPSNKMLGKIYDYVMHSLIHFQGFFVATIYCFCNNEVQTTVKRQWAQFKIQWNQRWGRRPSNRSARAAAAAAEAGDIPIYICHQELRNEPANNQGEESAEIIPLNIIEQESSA
T1 sequence (looked up) 2: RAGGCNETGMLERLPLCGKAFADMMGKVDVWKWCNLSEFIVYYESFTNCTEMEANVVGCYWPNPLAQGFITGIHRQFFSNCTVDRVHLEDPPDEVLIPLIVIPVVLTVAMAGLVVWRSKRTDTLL


These binders were tested against T1, human amylin receptor 3 (hAMYR3), hCTR2 … (assay: cell-based or functional assay).

| hAMYR3 EC50 (nM); cAMP induction | Binder |
| --- | --- |
| 0.22 nM | {C20 diacid}-[γGlu]RCGTATCATERLAHFLNRSSF[Sar]A[NMeI]LSSTEVGSNT[Hyp]-NH2 (disulfide 3-8; SMILES CC[C@H](C)[C@@H](C(=O)N[C@@H](CC(C)C)C(=O)N[C@@H](CO)C(=O)N[C@@H](CO)C(=O)N[C@H](C(=O)N[C@@H](CCC(=O)O)C(=O)N[C@H](C(=O)NCC(=O)N[C@@H](CO)C(=O)N[C@@H](CC(N)=O)C(=O)N[C@H](C(=O)N1C[C@H](O)C[C@H]1C(N)=O)[C@@H](C)O)C(C)C)[C@@H](C)O)N(C)C(=O)[C@H](C)NC(=O)CN(C)C(=O)[C@H](Cc1ccccc1)NC(=O)[C@H](CO)NC(=O)[C@H](CO)NC(=O)[C@H](CCCNC(=N)N)NC(=O)[C@H](CC(N)=O)NC(=O)[C@H](CC(C)C)NC(=O)[C@H](Cc1ccccc1)NC(=O)[C@H](Cc1c[nH]cn1)NC(=O)[C@H](C)NC(=O)[C@H](CC(C)C)NC(=O)[C@H](CCCNC(=N)N)NC(=O)[C@H](CCC(=O)O)NC(=O)[C@@H](NC(=O)[C@H](C)NC(=O)[C@@H]1CSSC[C@H](NC(=O)[C@H](CCCNC(=N)N)NC(=O)CC[C@H](NC(=O)CCCCCCCCCCCCCCCCCCC(=O)O)C(=O)O)C(=O)NCC(=O)N[C@@H]([C@@H](C)O)C(=O)N[C@@H](C)C(=O)N[C@@H]([C@@H](C)O)C(=O)N1)[C@@H](C)O) [[19CD]-isoGlu-R-C( )-GTAT-C( )-ATERLAHFLNRSSF-Gly(Me)-A-Ile(Me)-LSSTEVGSNT-Hyp-NH2 (Compd. 6)] |
| 0.09 nM | {C20 diacid-γGlu}-RCNTATCATERLAHFLQRSSF[Sar]A[NMeI]LSSTEVGSDT[Hyp]-NH2 (disulfide 2-7; SMILES CC[C@H](C)[C@@H](C(=O)N[C@@H](CC(C)C)C(=O)N[C@@H](CO)C(=O)N[C@@H](CO)C(=O)N[C@H](C(=O)N[C@@H](CCC(=O)O)C(=O)N[C@H](C(=O)NCC(=O)N[C@@H](CO)C(=O)N[C@@H](CC(=O)O)C(=O)N[C@H](C(=O)N1C[C@H](O)C[C@H]1C(N)=O)[C@@H](C)O)C(C)C)[C@@H](C)O)N(C)C(=O)[C@H](C)NC(=O)CN(C)C(=O)[C@H](Cc1ccccc1)NC(=O)[C@H](CO)NC(=O)[C@H](CO)NC(=O)[C@H](CCCNC(=N)N)NC(=O)[C@H](CCC(N)=O)NC(=O)[C@H](CC(C)C)NC(=O)[C@H](Cc1ccccc1)NC(=O)[C@H](Cc1c[nH]cn1)NC(=O)[C@H](C)NC(=O)[C@H](CC(C)C)NC(=O)[C@H](CCCNC(=N)N)NC(=O)[C@H](CCC(=O)O)NC(=O)[C@@H](NC(=O)[C@H](C)NC(=O)[C@@H]1CSSC[C@H](NC(=O)[C@H](CCCNC(=N)N)NC(=O)CC[C@H](NC(=O)CCCCCCCCCCCCCCCCCCC(=O)O)C(=O)O)C(=O)N[C@@H](CC(N)=O)C(=O)N[C@@H]([C@@H](C)O)C(=O)N[C@@H](C)C(=O)N[C@@H]([C@@H](C)O)C(=O)N1)[C@@H](C)O) [[19CD]-isoGlu-R-C( )-NTAT-C( )-ATERLAHFLQRSSF-Gly(Me)-A-Ile(Me)-LSSTEVGSDT-Hyp-NH2 (Compd. 60)] |
| 0.11 nM | {C20 diacid}-[γGlu]RCPTATCATDRLAHFLQRSSF[Sar]A[NMeI]LSSTDVGSNT[Hyp]-NH2 (disulfide 3-8; SMILES CC[C@H](C)[C@@H](C(=O)N[C@@H](CC(C)C)C(=O)N[C@@H](CO)C(=O)N[C@@H](CO)C(=O)N[C@H](C(=O)N[C@@H](CC(=O)O)C(=O)N[C@H](C(=O)NCC(=O)N[C@@H](CO)C(=O)N[C@@H](CC(N)=O)C(=O)N[C@H](C(=O)N1C[C@H](O)C[C@H]1C(N)=O)[C@@H](C)O)C(C)C)[C@@H](C)O)N(C)C(=O)[C@H](C)NC(=O)CN(C)C(=O)[C@H](Cc1ccccc1)NC(=O)[C@H](CO)NC(=O)[C@H](CO)NC(=O)[C@H](CCCNC(=N)N)NC(=O)[C@H](CCC(N)=O)NC(=O)[C@H](CC(C)C)NC(=O)[C@H](Cc1ccccc1)NC(=O)[C@H](Cc1c[nH]cn1)NC(=O)[C@H](C)NC(=O)[C@H](CC(C)C)NC(=O)[C@H](CCCNC(=N)N)NC(=O)[C@H](CC(=O)O)NC(=O)[C@@H](NC(=O)[C@H](C)NC(=O)[C@@H]1CSSC[C@H](NC(=O)[C@H](CCCNC(=N)N)NC(=O)CC[C@H](NC(=O)CCCCCCCCCCCCCCCCCCC(=O)O)C(=O)O)C(=O)N2CCC[C@H]2C(=O)N[C@@H]([C@@H](C)O)C(=O)N[C@@H](C)C(=O)N[C@@H]([C@@H](C)O)C(=O)N1)[C@@H](C)O) [[19CD]-isoGlu-R-C( )-PTAT-C( )-ATDRLAHFLQRSSF-Gly(Me)-A-Ile(Me)-LSSTDVGSNT-Hyp-NH2 (Compd. 59)] |
